Publication PMC2820527

Target: SmTK4-SH2SH2 (tandem SH2-domain of SmTK4 as a fusion protein with the Gal4-BD) (Schistosoma mansoni) (UniProt Q8WPV5)
Experiment: two-hybrid; beta-Gal liquid assay (ONPG) in AH109, relative binding strength; bait plasmid co-expresses the SmTK3 TK-domain (additional phosphorylation)

## SmTK6 prey clone (novel schistosome Src kinase SmTK6, partial, Gal4-AD fusion) (from UniProt C5J9R9 1-565) (domain or fragment)
  fold increase of the interaction (β-Gal liquid assay) with the SmTK3 TK-domain against without it: 5 fold
